# Data taken from US20230060388A1 (SHANGHAI HENLIUS BIOTECH, published 2023).
# Where two headings read alike, the source gives them in different places.
# T1: human TIGIT expressed on cells (stably transfected Jurkat cells) (human, UniProt Q495A1 22-244)
# T1 construct: Also used here for TIGIT on primary T cells in the MLR; also called h-TIGIT; T cell immunoreceptor with Ig and ITIM domains
# T1 sequence: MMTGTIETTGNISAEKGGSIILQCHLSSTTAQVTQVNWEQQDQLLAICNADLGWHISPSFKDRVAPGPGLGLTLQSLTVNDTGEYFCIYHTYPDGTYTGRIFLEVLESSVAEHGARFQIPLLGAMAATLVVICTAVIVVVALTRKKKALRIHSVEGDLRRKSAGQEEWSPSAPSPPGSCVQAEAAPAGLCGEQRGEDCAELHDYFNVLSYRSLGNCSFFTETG
# T2: recombinant ECD of mouse FcγRIV (mouse, UniProt A0A0B4J1G0 21-203)
# T2 sequence: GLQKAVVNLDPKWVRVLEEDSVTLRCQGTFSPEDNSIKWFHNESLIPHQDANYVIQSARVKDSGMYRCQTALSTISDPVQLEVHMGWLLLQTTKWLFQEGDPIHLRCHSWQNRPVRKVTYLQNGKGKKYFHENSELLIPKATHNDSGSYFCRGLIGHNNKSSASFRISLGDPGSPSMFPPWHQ
# T3: recombinant ECD of human FcγRIIB (human, UniProt P31994 43-217)
# T3 construct: extracellular domain
# T3 sequence (looked up): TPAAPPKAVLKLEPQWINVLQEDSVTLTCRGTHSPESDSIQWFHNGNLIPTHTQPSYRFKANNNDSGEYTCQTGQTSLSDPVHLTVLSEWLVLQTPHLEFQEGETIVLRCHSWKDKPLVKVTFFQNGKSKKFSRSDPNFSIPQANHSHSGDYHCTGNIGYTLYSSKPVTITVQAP
# B1: anti-TIGIT x anti-PD1 bispecific antibody, LCC version (bispecific antibody, human IgG4 S228P, kappa)
# heavy: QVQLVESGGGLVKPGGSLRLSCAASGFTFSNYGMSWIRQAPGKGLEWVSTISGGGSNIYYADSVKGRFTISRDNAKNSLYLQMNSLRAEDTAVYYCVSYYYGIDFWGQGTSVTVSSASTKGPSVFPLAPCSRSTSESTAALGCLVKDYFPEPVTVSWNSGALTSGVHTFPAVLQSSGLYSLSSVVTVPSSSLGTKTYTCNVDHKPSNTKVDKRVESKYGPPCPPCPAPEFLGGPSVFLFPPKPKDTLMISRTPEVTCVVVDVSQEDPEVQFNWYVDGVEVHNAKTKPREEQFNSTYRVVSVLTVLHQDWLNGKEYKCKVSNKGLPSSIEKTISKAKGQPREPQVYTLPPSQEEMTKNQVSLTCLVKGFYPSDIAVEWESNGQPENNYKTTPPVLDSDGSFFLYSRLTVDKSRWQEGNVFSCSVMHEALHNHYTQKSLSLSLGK
# light: DIQMTQSPSSLSASVGDRVTITCKASQDVTTAVAWYQQKPGKAPKLLIYWASTRHTGVPSRFSGSGSGTDFTLTISSLQPEDFATYYCQQHYTIPWTFGGGTKLEIKRTVAAPSVFIFPPSDEQLKSGTASVVCLLNNFYPREAKVQWKVDNALQSGNSQESVTEQDSKDSTYSLSSTLTLSKADYEKHKVYACEVTHQGLSSPVTKSFNRGECGSGGSGGSGGSGQVQLVESGGGVVQPGRSLRLSCAASGGSFSSYPMGWFRQAPGKERESVAAISSDLRFTYYADSVKGRFTISRDNSKNTLYLQMNSLRAEDTAVYYCAARTSGVGYYSRAQWYDYWGQGTLVTVSS
# notes: VHH 2A3 fused to the C-terminus of the anti-PD1 light chain; also called aTIGITxaPD1-LCC; aTIGITxaPDI-LCC
# B2: 2A3-LT-Fc-DLE (Fc mutations S239D, A330L, I332E) (Fc fusion)
# chain: QVQLVESGGGVVQPGRSLRLSCAASGGSFSSYPMGWFRQAPGKERESVAAISSDLRFTYYADSVKGRFTISRDNSKNTLYLQMNSLRAEDTAVYYCAARTSGVGYYSRAQWYDYWGQGTLVTVSSEPKSCDKTHTCPPCPAPELLGGPDVFLFPPKPKDTLMISRTPEVTCVVVDVSHEDPEVKFNWYVDGVEVHNAKTKPREEQYNSTYRVVSVLTVLHQDWLNGKEYKCKVSNKALPLPEEKTISKAKGQPREPQVYTLPPSREEMTKNQVSLTCLVKGFYPSDIAVEWESNGQPENNYKTTPPVLDSDGSFFLYSKLTVDKSRWQQGNVFSCSVMHEALHNHYTQKSLSLSPGK
# notes: I332E is printed as 1332E; also called DLE mutant
# B3: 1G1 bivalent VHH antibody (1G1-chimeric) (Fc fusion)
# chain: QVQLVESGGGLVQAGDSLRLSCVASGPSFSSYPMGWFRQGPGKERESVAAISSDGRFTYYAASVKGRFTISKDNAKSAAFLQMNSLKPEDTAVYYCAARDSGSGYYSRAQWYDYWGQGTLVTVSS
# notes: Llama VHH of 1G1 with human IgG1 CH2 and CH3; also called chimeric parental clone; not shown: human IgG1 CH2 and CH3 domains
# B4: anti-TIGIT x anti-PD1 bispecific antibody, LCN version (bispecific antibody, human IgG4 S228P, kappa)
# heavy: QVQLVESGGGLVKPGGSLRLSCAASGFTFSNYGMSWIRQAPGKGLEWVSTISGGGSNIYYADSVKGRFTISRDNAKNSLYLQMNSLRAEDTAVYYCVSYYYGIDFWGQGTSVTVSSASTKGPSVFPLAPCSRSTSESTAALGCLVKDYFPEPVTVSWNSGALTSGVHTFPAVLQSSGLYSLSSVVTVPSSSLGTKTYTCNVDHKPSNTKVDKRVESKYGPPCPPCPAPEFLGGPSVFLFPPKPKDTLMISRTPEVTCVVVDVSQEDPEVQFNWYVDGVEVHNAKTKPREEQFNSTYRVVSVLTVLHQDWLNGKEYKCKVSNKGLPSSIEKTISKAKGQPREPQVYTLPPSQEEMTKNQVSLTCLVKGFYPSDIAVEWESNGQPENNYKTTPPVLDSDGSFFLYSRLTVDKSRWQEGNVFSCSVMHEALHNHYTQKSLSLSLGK
# light: QVQLVESGGGVVQPGRSLRLSCAASGGSFSSYPMGWFRQAPGKERESVAAISSDLRFTYYADSVKGRFTISRDNSKNTLYLQMNSLRAEDTAVYYCAARTSGVGYYSRAQWYDYWGQGTLVTVSSGSGGSGGSGGSGDIQMTQSPSSLSASVGDRVTITCKASQDVTTAVAWYQQKPGKAPKLLIYWASTRHTGVPSRFSGSGSGTDFTLTISSLQPEDFATYYCQQHYTIPWTFGGGTKLEIKRTVAAPSVFIFPPSDEQLKSGTASVVCLLNNFYPREAKVQWKVDNALQSGNSQESVTEQDSKDSTYSLSSTLTLSKADYEKHKVYACEVTHQGLSSPVTKSFNRGEC
# notes: VHH 2A3 fused to the N-terminus of the anti-PD1 light chain; also called aTIGITxaPD1-LCN
# B5: 1C12 bivalent VHH antibody (1C12-chimeric) (Fc fusion)
# chain: QVQLVESGGGLVQTGDSLRLSCAASSRIFSRYGMGWFRQAPGKEREFVAAISWNGASTTYTDSVKGRFTISRDSAENTTYLQINSLRPEDTAVYYCAADPWGAVKLGTAEYEYWGQGTQVTVSS
# notes: Llama VHH of 1C12 with human IgG1 CH2 and CH3; also called chimeric parental clone; not shown: human IgG1 CH2 and CH3 domains
# B6: anti-TIGIT x anti-PD1 bispecific antibody, HCN version (bispecific antibody, human IgG4 S228P, kappa)
# heavy: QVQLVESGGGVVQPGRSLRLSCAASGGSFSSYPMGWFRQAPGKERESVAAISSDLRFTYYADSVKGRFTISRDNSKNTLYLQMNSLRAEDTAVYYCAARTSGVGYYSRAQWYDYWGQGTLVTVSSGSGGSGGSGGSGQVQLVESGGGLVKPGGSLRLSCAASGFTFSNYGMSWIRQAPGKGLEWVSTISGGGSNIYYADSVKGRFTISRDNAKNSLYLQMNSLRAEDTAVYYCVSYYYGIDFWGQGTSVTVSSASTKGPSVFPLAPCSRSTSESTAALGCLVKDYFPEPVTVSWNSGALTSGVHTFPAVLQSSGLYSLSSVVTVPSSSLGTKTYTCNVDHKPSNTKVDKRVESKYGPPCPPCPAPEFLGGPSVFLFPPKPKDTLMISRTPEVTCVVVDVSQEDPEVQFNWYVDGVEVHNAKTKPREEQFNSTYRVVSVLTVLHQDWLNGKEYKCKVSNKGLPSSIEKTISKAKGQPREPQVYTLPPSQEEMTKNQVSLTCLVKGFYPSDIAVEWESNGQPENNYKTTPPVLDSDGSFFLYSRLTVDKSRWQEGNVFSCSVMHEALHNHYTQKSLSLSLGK
# light: DIQMTQSPSSLSASVGDRVTITCKASQDVTTAVAWYQQKPGKAPKLLIYWASTRHTGVPSRFSGSGSGTDFTLTISSLQPEDFATYYCQQHYTIPWTFGGGTKLEIKRTVAAPSVFIFPPSDEQLKSGTASVVCLLNNFYPREAKVQWKVDNALQSGNSQESVTEQDSKDSTYSLSSTLTLSKADYEKHKVYACEVTHQGLSSPVTKSFNRGEC
# notes: VHH 2A3 fused to the N-terminus of the anti-PD1 heavy chain; also called aTIGITxaPD1-HCN; BsAb HCN
# B7: anti-TIGIT x anti-PD1 bispecific antibody, HCC version (bispecific antibody, human IgG4 S228P, kappa)
# heavy: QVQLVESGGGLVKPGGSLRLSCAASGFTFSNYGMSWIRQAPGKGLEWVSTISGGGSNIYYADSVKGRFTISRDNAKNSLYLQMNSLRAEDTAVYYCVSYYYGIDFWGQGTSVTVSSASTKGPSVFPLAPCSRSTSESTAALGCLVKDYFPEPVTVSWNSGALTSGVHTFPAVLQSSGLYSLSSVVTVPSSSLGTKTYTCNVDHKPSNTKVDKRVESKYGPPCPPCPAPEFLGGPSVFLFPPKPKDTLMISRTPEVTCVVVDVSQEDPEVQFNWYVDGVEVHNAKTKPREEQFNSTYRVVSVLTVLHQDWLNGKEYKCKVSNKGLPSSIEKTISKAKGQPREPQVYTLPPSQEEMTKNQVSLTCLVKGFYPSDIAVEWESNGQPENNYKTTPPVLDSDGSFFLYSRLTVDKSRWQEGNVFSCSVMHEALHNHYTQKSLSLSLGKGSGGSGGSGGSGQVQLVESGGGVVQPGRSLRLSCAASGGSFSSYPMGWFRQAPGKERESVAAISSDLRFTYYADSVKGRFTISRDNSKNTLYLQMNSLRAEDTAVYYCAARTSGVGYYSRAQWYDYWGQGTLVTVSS
# light: B6 light
# notes: VHH 2A3 fused to the C-terminus of the anti-PD1 heavy chain; also called aTIGITxaPD1-HCC
# What was measured:
# [1] = target: T1, human TIGIT expressed on cells (stably …); assay: TIGIT WCB: whole cell binding, flow cytometry, h-TIGIT Jurkat cells; mean
# Description: Affinity to TIGIT was further examined in whole cell binding assay using human TIGIT transfected Jurkat cells. Antibodies were incubated with h-TIGIT transfected Jurkat cells, and binding of antibodies to h-TIGIT was determined using a secondary anti-human-IgG Fc antibody conjugated with AlexaFluor488, which was detected by flow cytometry.
# [2] = target: T1, human TIGIT expressed on cells (stably …); assay: flow cytometry (whole cell binding) on h-TIGIT transfected Jurkat cells; table under the graph, Average (n=3), SD 71.12
# [3] = target: T1, human TIGIT expressed on cells (stably …); assay: cell-based or functional assay
# [4] = target: human FcγRIIIA expressed on transfected Jurkat cells (human, UniProt P08637 17-254); assay: cell-based or functional assay
# [5] = target: T2, recombinant ECD of mouse FcγRIV; assay: Octet (ForteBio), receptor ECD loaded on the sensor, antibody at 5 concentrations (not given) [m- FcγRIV binding]
# Text: (§1) FIG. 12 depicts binding of 2A3-LT-Fc wild type (wt) and Fc mutations (DLE and VLPLL) to human FcγRIIIA, human FcγRIIB and mouse FcγRIV determined using Octet binding assay. Sensors were loaded with recombinant proteins of ECDs of FcγRIIIA, human FcγRIIB and mouse FcγRIV, association and dissociation of 2A3-LT-Fc wt, DLE or VLPLL mutants at 5 different concentrations were detected using ForteBio. Y axis represents association, dissociation & Rmax. X axis represents time in second. Both DLE and VLPLL mutants had enhanced binding affinity to human FcγRIIIA compared to that of wild type, DLE mutant also had enhanced binding affinity to human FcγRIIB, however VLPLL mutant reduced binding affinity to human FcγRIIB All versions had similar affinity to mouse FcγRIV.
# [6] = target: T1, human TIGIT expressed on cells (stably …); assay: cell-based or functional assay; remark: listed apart in the source
# [7] = target: T3, recombinant ECD of human FcγRIIB; assay: Octet (ForteBio), receptor ECD loaded on the sensor, antibody at 5 concentrations (not given) [h-FcγRIIB binding]
# Text: as §1
# [8] = target: T1, human TIGIT expressed on cells (stably …); assay: flow cytometry on h-TIGIT transfected Jurkat cells, anti-human IgG Fc Alexa Fluor 488
# Text: FIGS. 1A-1C depict whole cell binding of representative VHH bivalent antibodies to human TIGIT determined by flowcytometry assays. […] Y axis represents Mean Fluorescence Intensity of AlexaFlour 488. X axis represents antibody concentrations in nanomolar. 2B7, 1G1, 1C12, 3G6, 2B10, 3G7, 3G10, 13H11, and 15A5 are VHH clones of anti-human TIGIT. FIG. 1C is a schematic of the structure of a TIGIT VHH bivalent antibody.
# Binding affinities of the bivalent clones to human TIGIT transfected Jurkat cells were confirmed by flowcytometry assays. Jurkat cells stably expressing human TIGIT and NFAT reporter gene were established. Specifically, Jurkat cells were transfected with human TIGIT expression vector by electroporation, and cells stably expressing human TIGIT were selected by 1 μg/ml puromycin during cell culture. Representative antibody clones were incubated at different concentrations with h-TIGIT stably expressing Jurkat cells (0.2×10^6/ml) in 100 μl/well in 96-well plate in FACS buffer (PBS with 1.5% FBS) for 30 min. After washing, Alexaflour 488 conjugated anti-human IgG Fc secondary antibody (Alexa Fluor® 488 AffiniPure Goat Anti-Human IgG, Fcγ fragment specific, Jackson labs, 1:500 dilution) was added and incubated for 30 min. After washing, mean fluorescence intensity was measured using CytoFlex (Beckman Coulter) by gating live cell population. Binding affinity was calculated using GraphPad Prism.
# [9] = target: T1, human TIGIT expressed on cells (stably …); assay: as above; remark: listed apart in the source
# Text: FIGS. 3A and 3B depict whole cell binding of humanized 1C12 and 1G1 clones to human TIGIT determined by flowcytometry assays. 1C12-chimeric is an antibody with Llama VHH sequence of 1C12 clone and human IgG1 CH2 and CH3 domains, 1C12 (F-EREF), 1C12 (F-EREW) and 1C12 (F-GLEW) are humanized versions of 1C12 clone with difference of mutations in Framework 2. 1G1-chimeric is an antibody with Llama VHH sequence of 1G1 clone and human IgG1 CH2 and CH3 domains. 1G1 (F-G-ERES), 1G1 (F-A-ERES), 1G1 (F-A-EREW) and 1G1 (F-A-GLEW) are four different versions of humanized 1G1 clones with different mutations in framework 2. Y axis is values of Mean Fluorescence Intensity of AlexaFlour 488. X axis is values of antibody concentrations in nanomolar.
# The binding affinities of the humanized bivalent antibodies to human TIGIT were determined by whole cell binding to h-TIGIT stably expressed on Jurkat cells. Briefly, antibodies were incubated with h-TIGIT transfected Jurkat cells (0.2×10⁶/well in 100 μl) for 30 min in FACS buffer. The cells were washed once, then incubated with anti-human IgG Fc AlexaFluor488 (1:500). Mean fluorescence intensity was determined by CytoFlex, and binding affinities of antibodies to h-TIGIT were calculated using non-liner regression by GraphPad Prism 8.0 as shown in FIG. 3A.
# [10] = target: T1, human TIGIT expressed on cells (stably …); assay: flow cytometry (whole cell binding) on h-TIGIT transfected Jurkat cells; table under the graph, Average (n=3), SD 0.35
# [11] = target: T1, human TIGIT expressed on cells (stably …); assay: flow cytometry (whole cell binding) on h-TIGIT transfected Jurkat cells; table under the graph, Average (n=3), SD 0.37
# [12] = target: T1, human TIGIT expressed on cells (stably …); assay: flow cytometry (whole cell binding) on h-TIGIT transfected Jurkat cells; table under the graph, Average (n=3), SD 1.61
# Chain of human FcγRIIIA expressed on transfected Jurkat cells (P08637 17-254): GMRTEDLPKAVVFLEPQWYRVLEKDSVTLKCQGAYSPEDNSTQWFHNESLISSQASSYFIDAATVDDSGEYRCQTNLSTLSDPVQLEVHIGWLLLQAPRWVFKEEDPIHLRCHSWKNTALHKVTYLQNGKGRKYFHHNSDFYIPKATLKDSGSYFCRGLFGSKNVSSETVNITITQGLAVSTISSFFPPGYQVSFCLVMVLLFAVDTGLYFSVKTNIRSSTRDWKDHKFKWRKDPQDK
binder,measurement,setting,value
B1,EC50,[1],192 nM
same,EC50,[2],155 nM
same,"EC50 (Mean, nM), PD1 + TIGIT Combination Blockade Assay (double blockade)",[3],0.48 nM
same,"EC50 (Mean, nM), TIGIT Blockade Assay",[3],10.3 nM
B2,"EC50 (nM), FcγRIIIA-mediated NFAT reporter, Average",[4],0.024 nM
same,"EC50 (nM), FcγRIIIA-mediated NFAT reporter, Exp 1",[4],0.027 nM
same,"EC50 (nM), FcγRIIIA-mediated NFAT reporter, Exp 2",[4],0.0295 nM
same,"EC50 (nM), FcγRIIIA-mediated NFAT reporter, Exp 3",[4],0.018 nM
same,"EC50 (nM), FcγRIIIA-mediated NFAT reporter, Exp 4",[4],0.02 nM
same,binding result,[5],binds
same,"EC50 (nM), TIGIT blockade NFAT reporter, Average",[6],0.97 nM
same,"EC50 (nM), TIGIT blockade NFAT reporter, Exp 1",[6],0.67 nM
same,"EC50 (nM), TIGIT blockade NFAT reporter, Exp 2",[6],0.92 nM
same,"EC50 (nM), TIGIT blockade NFAT reporter, Exp 3",[6],1.32 nM
same,binding result,[7],binds
B3,EC50 (read off the curve),[8],~0.09 nM
same,EC50 (read off the curve),[9],~0.07 nM
B4,EC50,[1],0.75 nM
same,EC50,[10],0.61 nM
same,"EC50 (Mean, nM), PD1 + TIGIT Combination Blockade Assay (double blockade)",[3],1.23 nM
same,"EC50 (Mean, nM), TIGIT Blockade Assay",[3],8.7 nM
B5,EC50 (read off the curve),[8],~0.04 nM
same,EC50 (read off the curve),[9],~0.03 nM
B6,EC50,[1],0.81 nM
same,EC50,[11],0.55 nM
same,"EC50 (Mean, nM), PD1 + TIGIT Combination Blockade Assay (double blockade)",[3],1.15 nM
same,"EC50 (Mean, nM), TIGIT Blockade Assay",[3],2.7 nM
B7,EC50,[1],4.93 nM
same,EC50,[12],4.2 nM
same,"EC50 (Mean, nM), PD1 + TIGIT Combination Blockade Assay (double blockade)",[3],2.61 nM
same,"EC50 (Mean, nM), TIGIT Blockade Assay",[3],25.9 nM
